These results are taken from article PMC8163975 (2021).

Where two headings read alike, the source gives them in different places.

Common to all, as to test: FP
For assay [1], the target named is HRAS•mGppNHp (human, UniProt P01112 1-189).
The target in assay [2] is T1, RIT1•mGppNHp (human, UniProt Q92963 1-219).
Assay [3] addresses RHEB1•mGppNHp (human, UniProt Q15382 1-184).
The target of assay [4] is T2, RRAS1•mGppNHp (human, UniProt P10301 1-218).
T2 chain: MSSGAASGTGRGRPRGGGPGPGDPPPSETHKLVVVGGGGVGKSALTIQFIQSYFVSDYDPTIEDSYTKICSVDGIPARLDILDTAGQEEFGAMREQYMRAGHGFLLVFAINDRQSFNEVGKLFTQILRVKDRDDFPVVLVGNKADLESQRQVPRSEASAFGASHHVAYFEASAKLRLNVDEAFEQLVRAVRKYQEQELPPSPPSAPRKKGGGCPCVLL

The target of assay [5] is T3, RAP2A•mGppNHp (human, UniProt P10114 1-183).
T3 chain: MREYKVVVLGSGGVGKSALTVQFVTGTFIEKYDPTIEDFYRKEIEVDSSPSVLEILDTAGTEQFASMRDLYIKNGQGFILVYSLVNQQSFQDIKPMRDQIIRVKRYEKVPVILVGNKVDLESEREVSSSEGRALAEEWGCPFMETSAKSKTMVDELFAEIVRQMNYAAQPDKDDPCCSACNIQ

Assay [6] has as its target T1, RIT1•mGppNHp. The source holds these as a separate data set.
The target of assay [7] is T4, RALA•mGppNHp (human, UniProt P11233 1-206).
T4 chain: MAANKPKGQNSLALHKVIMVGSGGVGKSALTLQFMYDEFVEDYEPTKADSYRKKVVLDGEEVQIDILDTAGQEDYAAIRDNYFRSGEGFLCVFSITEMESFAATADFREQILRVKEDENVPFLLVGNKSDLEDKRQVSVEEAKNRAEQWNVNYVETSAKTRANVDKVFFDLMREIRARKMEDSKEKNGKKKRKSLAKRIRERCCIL

Assay [8] has as its target T5, RAP1B•mGppNHp (human, UniProt P61224 1-184).
T5 chain: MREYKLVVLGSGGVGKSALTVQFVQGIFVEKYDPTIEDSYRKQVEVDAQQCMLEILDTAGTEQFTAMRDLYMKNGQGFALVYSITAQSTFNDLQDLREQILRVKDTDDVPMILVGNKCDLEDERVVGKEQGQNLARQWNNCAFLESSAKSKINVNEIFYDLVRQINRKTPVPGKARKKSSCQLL

T1 sequence (Q92963 whole entry): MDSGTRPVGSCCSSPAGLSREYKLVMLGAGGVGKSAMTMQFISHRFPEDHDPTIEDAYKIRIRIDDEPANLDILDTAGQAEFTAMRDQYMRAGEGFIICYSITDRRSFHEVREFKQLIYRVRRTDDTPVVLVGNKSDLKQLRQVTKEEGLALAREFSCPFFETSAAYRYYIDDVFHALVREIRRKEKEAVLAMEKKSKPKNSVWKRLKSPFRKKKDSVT
RHEB1•mGppNHp, sequence (Q15382 whole entry): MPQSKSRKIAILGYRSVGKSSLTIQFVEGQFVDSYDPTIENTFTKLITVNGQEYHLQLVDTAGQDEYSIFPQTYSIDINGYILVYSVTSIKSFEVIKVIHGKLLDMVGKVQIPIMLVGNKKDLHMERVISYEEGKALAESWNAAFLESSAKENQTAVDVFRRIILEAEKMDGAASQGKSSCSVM

B1: RASSF4-to-5 variant (RASSF4 RA domain with RASSF5 hotspot residues), MBP fusion (domain or fragment)
chain: YNHKTSVFTPADGIKTLVRVNSTMTTLQVLTLLLNKFRVEDGPSEFALYIVHESGERTKLKDCEYPLISRILHGPCEKIARIFLMEADL
Consider B1, for which the values for the Kd in assay [1] and in assay [2] were 10 µM and 170 µM, respectively.

B2: RASSF1 RA domain, MBP fusion (domain or fragment)
chain: RGTSVRRRTSFYLPKDAVKHLHVLSRTRAREVIEALLRKFLVVDDPRKFALFERAERHGQVYLRKLLDDEQPLRLRLLAGPSDKALSFVLKENDS
In the case of B2, the Kd (in general, the concentration at which binding is half-saturated) in assay [3] turned out to be 37 µM; in assay [4], 33 µM; in assay [5], 22 µM; in assay [6], 136 µM; in assay [7], 18 µM; in assay [8], 26 µM.
